This is an account of results in patent publication US20100004165A1, “Novel Protein Transduction Domains and Uses Therefor” (The Arizona Board of Regents, a body corporate acting on …, priority 2005, published 2010).

Data set [1] concerns primary rat astrocyte cells. Kind of data set: Transduction across cell membranes in primary rat astrocyte cells. Type of data set: cell-based. The method, then: The in vitro model used to assess transduction across cell membranes was primary rat astrocyte cells. Cells were isolated as described (Innocenti et. al., J. Neurosci. 20:1800-1808, 2000), seeded at ˜3×10^4 cells/cm^2, and cultured in full serum (10% FBS in α-MEM) overnight. Some cells were serum starved by culturing in 0.5% FBS for 1-24 hours prior to treatment with transduction peptides.

Data set [2] has as its system porcine ear skin. Kind of data set: In vitro skin penetration and transdermal delivery, porcine ear skin in Franz diffusion cell, spectrofluorimetry (Example 3). Particulars: for penetration in both SC and [E+D] compared with nonconjugated P20: all time points studied (0.5-8 h), p<0.05; for transdermal delivery: amount in the receptor phase: detected only at 8 hours post-application; for course of concentration in [E+D]: from 0.5 to 4 hours post-application, no further increase between 4 and 8 hours; for time of maximal rate of penetration in the whole skin (SC+[E+D]): post-application. On the procedure: Fluorescence microscopy was used to visualize the peptides in different skin layers.
Formulations: Except in the experiments involving chemical penetration enhancers, FITC-labeled peptides were dissolved in phosphate-buffered saline (PBS, 10 mM, pH 7.2); the peptide concentration was 100 μM. In the experiment involving penetration enhancers, PBS could not be used as a solvent because of the lipophilic nature of monoolein and oleic acid. Propylene glycol was used as a solvent, since it solubilizes both lipids and peptides. […] The formulations were prepared by mixing monoolein or oleic acid with propylene glycol and adding the peptides to the system immediately thereafter.
Porcine ear skin was used as model skin for in vitro skin penetration studies because of its similarity with human skin, especially regarding histological and biochemical properties and permeability to drugs (33). Freshly excised porcine ears were obtained from a local abattoir. The skin from the outer surface of the ear was carefully dissected; making sure that the subcutaneous fat was maximally removed (34). Maximum care was taken to maintain the integrity of the skin, which was assured by histology. The cleaned porcine ear skin was immediately mounted in a Franz diffusion cell (diffusion area of 1 cm^2; Laboratory Glass Apparatus, Inc, Berkeley, Calif., USA), with the stratum corneum facing the donor compartment (where the formulation was applied) and the dermis facing the receptor compartment, which was filled with PBS (100 mM, pH 7.2, 3 mL). The receptor phase was maintained at 37° C. and under constant stirring. To achieve higher reproducibility, the skin samples were equilibrated to the diffusion cell conditions for 30 minutes before application of any formulation.
PBS solutions or propylene glycol formulations of the peptides (70 μL each) were applied to the skin surface (donor compartment). […] The concentrations of FITC-P20 (SEQ ID NO: 9), FITC-YARA-P20 (SEQ ID NO: 42), and FITC-TAT-P20 (SEQ ID NO: 43) in the skin and receptor phase were determined at 0.5, 1, 2, 4, and 8 hour post-application.
At the end of the experiment, skin surfaces were thoroughly washed with distilled water to remove excess formulation and carefully wiped with a tissue paper. To separate the stratum corneum (SC) from the remaining epidermis (E) and dermis (D), the skin was subjected to tape stripping. The skin was stripped with 15 pieces of adhesive tape (3M, St. Paul, Minn., USA), and the tapes containing the SC were immersed in 3 mL of a water:methanol (1:1 v/v) solution, vortexed for 2 min, and bath sonicated for 30 minutes. The remaining [E+D] was cut in small pieces, vortexed for 2 minutes in 2 mL of a water:methanol (1:1 v/v) solution, and homogenized using a tissue grinder for 1 minute and bath sonication for 30 minutes. The resulting mixture was centrifuged for 1 minute. The peptide present in the receptor phase was concentrated (10×) as follows. Samples (2 mL) of the receptor phase were lyophilized for 24 hours, and the residue was dissolved in 200 μL of a hidroalcoholic (20% of ethanol) solution.
All solutions were subjected to fluorimetry analysis using a Gemini SpectraMax™ platereader (Molecular Devices, Sunnyvale, Calif., USA) with excitation at 495 nm and emission at 518 nm. […] To evaluate the recovery of the peptides from the skin in the extraction procedure, tissues sections (1 cm^2) were spiked with 20 μL of 0.2 and 0.5 mM solutions of the peptides. The skin sections were homogenized using a tissue grinder, vortex-mixer, and bath sonicator, as described above. […] We accounted for such a recovery percentage in the quantification of peptides.

Data set [3] relates to porcine ear skin. Kind of data set: Fluorescence microscopy of skin sections after peptide application. The text has this:
The skin sections (8 μm) were mounted on glass slides. The slides were visualized without any additional staining or treatment through a 20× objective using a Zeiss microscope (Carl Zeiss, Thornwood, N.Y., USA) equipped with a filter for FITC and AxioVision software.

For another data set, the system named is Rat aorta. Kind of data set: Vasorelaxation of rat aorta rings pre-contracted with KCl (muscle bath). The method, then:
Rat aorta was isolated and dissected free from connective and fat tissue. Transverse rings, 3.0 mm in width, were cut and tied to silk suture. The tissue was suspended in a muscle bath containing a bicarbonate buffer (120 mM NaCl, 4.7 mM KCl, 1.0 mM MgSO4, 1.0 mM NaH2PO4, 10 mM glucose, 1.5 mM CaCl2, and 25 mM […], pH 7.4) and equilibrated with 95% O2/5% CO2 at 37° C. The rings were fixed at one end to a stainless steel wire and attached to a force transducer in muscle perfusion system (Radnotti). The rings were then progressively stretched, and the isometric force generated in response to 110 mM KCl (with equimolar replacement of NaCl in bicarbonate buffer) was determined until the consistent maximal force was produced. Agonists and peptide was added directly to the baths. Tissue that was pre-contracted with 110 mM potassium chloride (KCl) followed by 1.0 mM WL-P20 ([…]p[…], pS is phosphoserine) (SEQ ID NO: 10), where pS is phosphoserine) relaxed compared to untreated control (13% relaxation at 10 minutes, 50% relaxation at 30 minutes, and maximum 88% relaxation at ˜60 minutes, FIG. 4). Percent relaxation was calculated relative to maximum force generated with KCl. […] Such a difference may result from different mechanisms of penetration and/or intracellular localization.

The subject of data set [4] is porcine ear skin. Kind of data set: Ex vivo skin transduction, porcine ear skin in modified Franz diffusion cell (Example 2). The class given is in vitro ADME. Particulars: 100 uM, conjugated or alone (FIG. 1, Panel C). The method, then: The ex vivo model selected for skin transduction studies was freshly excised porcine ears. […] The system was maintained at 37° C. and under constant stirring. […] The amount of peptides that permeated across the skin was determined in the receptor phase; 1.5 mL of the receptor phase was withdrawn, lyophilized and the residue was suspended in 150 μL of water. […] Standard curves of the peptides were used as reference.

[5] abbreviates: PBS vehicle, 4 hours post-application.

Read-outs that look alike come from different tables or passages of the source. Square brackets hold non-standard residues; d marks the D form. Ends that are not written are not given here. pS = N[C@@H](COP(=O)(O)O)C(=O)O

With “WL-scrP20: control, the pseudo-monomer WLRRIKA-(WL-scrP20)”, the transduction result in data set [1] (1 μM), in data set [1] (25 μM) and in data set [1] (50 μM) was “no transduction was observed” in each case.
For the substance YARAAARQARA, in the data set on porcine ear skin [2], the “amount penetrated into the skin (SC+[E+D]) relative to amount that permeated across the skin” value was determined as 34 times; the “effect of monoolein or oleic acid on topical or transdermal delivery” value is reported as “failed to further increase”; the “influence of propylene glycol on skin penetration compared to PBS” value is “did not influence”; the “penetration in the SC and [E+D] relative to the control peptide FITC-YKAc” value was 8-10 times. Besides, the “transdermal delivery: amount found in the receptor phase” value in the data set on porcine ear skin [2] was found to be 0.053 ± 0.009 nmol. Further, the “localisation of fluorescence in skin layers” value (shortened to “localisation of fluorescence”) in the data set with porcine ear skin [3] was “strong fluorescent staining of SC and viable epidermis”.
Regarding “YARAAARQARAWLRRASAPLPGLK (YARAAARQARAWLRRA[pS]APLPGLK; also: FITC label) [YARA-P20]”, the “time of maximum relaxation” value in the data set with Rat aorta was in the range of 5 to 10 min. Further, in the data set on porcine ear skin [2], the “penetration in both SC and [E+D] compared with nonconjugated P20” value was “significantly higher”; the “transdermal delivery: amount in the receptor phase” value was found to be 0.031 ± 0.011 nmol; the “course of concentration in [E+D]” value is recorded as “progressively increased”; the “time of maximal rate of penetration in the whole skin (SC+[E+D])” value worked out at 1 h. In the data set on porcine ear skin [3] (4 hours post-application), the “localisation of fluorescence” value was “strong fluorescence in the SC and viable epidermis”. The skin penetration entry in the data set with porcine ear skin [4] is given as “significantly enhanced”.
For YGRKKRRQRRR [TAT], the “influence of propylene glycol on skin penetration compared to PBS” value in the data set with porcine ear skin [2] (4 hours post-application) was “did not influence”. In addition, in the data set on porcine ear skin [2] (setting [5]), the “amount penetrated into the skin (SC+[E+D]) relative to amount that permeated across the skin” value worked out at 30 times and the “transdermal delivery: amount found in the receptor phase” value stood at 0.058 ± 0.008 nmol. In addition, the “effect of monoolein or oleic acid on topical or transdermal delivery” value with porcine ear skin [2] (propylene glycol, monoolein 10% w/w or oleic acid 5% w/w, 4 h) is reported as “failed to further increase”. Moreover, the “localisation of fluorescence” value with porcine ear skin [3] (4 hours post-application) was “strong fluorescent staining of SC and viable epidermis”.
Take YGRKKRRQRRRWLRRASAPLPGLK [TAT-P20]: in the data set on porcine ear skin [2], the “penetration in both SC and [E+D] compared with nonconjugated P20” value is given as “significantly higher”; the “transdermal delivery: amount in the receptor phase” value stood at 0.027 ± 0.009 nmol; the “course of concentration in [E+D]” value is on record as “progressively increased”; the “time of maximal rate of penetration in the whole skin (SC+[E+D])” value turned out to be 1 h. Besides, the “localisation of fluorescence” value with porcine ear skin [3] (4 hours post-application) is “strong fluorescence in the SC and viable epidermis”.
